The results in this text go back to patent CN1420129A (ZHONGXIN GUOJIAN PHARMACEUTICA, dated 2003).

Like-named read-outs stand apart in the source and are kept apart here.

Common to all, as to assay: cell-based or functional assay
Assay [1] has as its target CD20 (on CD20+ B lymphocytes / human B lymphoma cell line DHL-4) (human) (UniProt P11836).
Assay [2] shares this target. This is another data set of the same source.
For assay [3], the target named is T1, CD20 (on CD20+ B lymphocytes / human B lymphoma cell line DHL-4) (human, UniProt P11836 1-297).
T1 sequence (looked up): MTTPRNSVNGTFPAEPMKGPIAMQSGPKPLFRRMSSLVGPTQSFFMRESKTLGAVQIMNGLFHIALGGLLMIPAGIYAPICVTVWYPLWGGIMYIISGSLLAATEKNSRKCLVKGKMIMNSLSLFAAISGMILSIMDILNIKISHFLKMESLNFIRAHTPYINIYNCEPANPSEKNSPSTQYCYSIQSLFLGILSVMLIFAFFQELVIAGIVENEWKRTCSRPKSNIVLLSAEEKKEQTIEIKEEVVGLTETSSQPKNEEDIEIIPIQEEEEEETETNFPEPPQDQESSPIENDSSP

In assay [1], Rituximab (antibody) displayed a 存活细胞% (DHL-4 CD20+ cells, cell count and MTT, day 5-7) at 1 μg/ml (% surviving cells) of 50.3; a 存活细胞% (DHL-4 CD20+ cells, cell count and MTT, day 5-7) at 10 μg/ml (% surviving cells) of 12.6; a 存活细胞% (DHL-4 CD20+ cells, cell count and MTT, day 5-7) at 100 μg/ml (% surviving cells) of 29.4. In assay [2], this molecule registered a 存活细胞% (DHL-4 CD20+ cells, cell count and MTT, day 5-7) at 1 μg/ml (% surviving cells) of 66.7; a 存活细胞% (DHL-4 CD20+ cells, cell count and MTT, day 5-7) at 10 μg/ml (% surviving cells) of 32.1; a 存活细胞% (DHL-4 CD20+ cells, cell count and MTT, day 5-7) at 100 μg/ml (% surviving cells) of 19.4.

B1: 单克隆抗体7D3 (antibody, V domains shown)
VH: QAQLQQSGAELVRPGASVKMSCKASGYTFTRYNMHWVKQTPRQGLEWIGYIYPGNGDTNYNQKFKGKATLTVDKSSSTAYMQLSSLTSEDSAVYFCARRTYYSNSYWYFDVWGTGTTVTVSS
VL: QIVLTQSPAILSASPGEKVTMTCRASSSVSYMNWYQQKPGSSPKPWIYAPSNLASGVPARFSGSGSGTSYSLTISRVEAEDAATYYCQQWSNNPPTFGAGTKLELKR
In the case of B1, in assay [3], the “存活细胞% (DHL-4 CD20+ cells, cell count and MTT, day 5-7) at 1 μg/ml” value turned out to be 99.6 % surviving cells; the “存活细胞% (DHL-4 CD20+ cells, cell count and MTT, day 5-7) at 10 μg/ml” value was 46.5 % surviving cells; the “存活细胞% (DHL-4 CD20+ cells, cell count and MTT, day 5-7) at 100 μg/ml” value is 56.7 % surviving cells.

B2: 嵌合单抗C7D3 (antibody, human IgG1, V domains shown)
VH: QAQLQQSGAELVRPGASVKMSCKASGYTFTRYNMHWVKQTPRQGLEWIGYIYPGNGDTNYNQKFKGKATLTVDKSSSTAYMQLSSLTSEDSAVYFCARRTYYSNSYWYFDVWGTGTTVTVSS
VL: QIVLTQSPAILSASPGEKVTMTCRASSSVSYMNWYQQKPGSSPKPWIYAPSNLASGVPARFSGSGSGTSYSLTISRVEAEDAATYYCQQWSNNPPTFGAGTKLELKR
Regarding B2, in assay [3], the “存活细胞% (DHL-4 CD20+ cells, cell count and MTT, day 5-7) at 1 μg/ml” value was found to be 110 % surviving cells; the “存活细胞% (DHL-4 CD20+ cells, cell count and MTT, day 5-7) at 10 μg/ml” value came out at 27.3 % surviving cells; the “存活细胞% (DHL-4 CD20+ cells, cell count and MTT, day 5-7) at 100 μg/ml” value came to 39.4 % surviving cells.
